Results taken from the supplement of paper PMC10065799, “High-throughput profiling of sequence recognition by tyrosine kinases and SH2 domains using bacterial peptide display” (eLife, 2023).

How the values were obtained:
MERTK = MERTK (UniProt Q12866); test: phosphorylation enrichment, bacterial display (enrichment ratio); higher = better substrate or ligand; peptides without Tyr show the background
c-Abl (mouse) = test: as above
Jak2 = Jak2 (UniProt O60674); test: as above
c-Src = test: as above
EPHB1 = EPHB1 (UniProt P54762); test: as above
FGFR1 = FGFR1 (UniProt P11362); test: as above
Fer (mouse) = test: as above
Fyn = Fyn (UniProt P06241); test: as above
AncSZ = test: as above
FGFR3 = FGFR3 (UniProt P22607); test: as above
Fes = Fes (UniProt P07332); test: as above
EPHB2 = EPHB2 (UniProt P29323); test: as above
Hck = Hck (UniProt P08631); test: as above
SHP2-C SH2 = test: SH2 binding enrichment of the phosphorylated peptide, bacterial display (enrichment ratio); higher = better substrate or ligand; peptides without Tyr show the background
c-Src SH2 = test: as above
Grb2 SH2 = Grb2 SH2 (UniProt P62993); test: as above
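Wherever SH2 binding enrichment of the phosphorylated peptide, bacterial display is given: peptide library displayed on the E. coli surface as eCPX fusions, selected cells deep-sequenced, score is each peptide's frequency after selection divided by its frequency in the input.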
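Wherever phosphorylation enrichment, bacterial display is given: 11-residue human phosphosite peptides and single-mutation variants displayed on the E. coli surface, counted by deep sequencing, each peptide's frequency after selection divided by its frequency in the unselected input library; frequency after pTyr selection over input frequency; kinase dosed for 20-30% of maximal phosphorylation in three min.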

Sequence of EPHB2 (P29323 whole entry, looked up): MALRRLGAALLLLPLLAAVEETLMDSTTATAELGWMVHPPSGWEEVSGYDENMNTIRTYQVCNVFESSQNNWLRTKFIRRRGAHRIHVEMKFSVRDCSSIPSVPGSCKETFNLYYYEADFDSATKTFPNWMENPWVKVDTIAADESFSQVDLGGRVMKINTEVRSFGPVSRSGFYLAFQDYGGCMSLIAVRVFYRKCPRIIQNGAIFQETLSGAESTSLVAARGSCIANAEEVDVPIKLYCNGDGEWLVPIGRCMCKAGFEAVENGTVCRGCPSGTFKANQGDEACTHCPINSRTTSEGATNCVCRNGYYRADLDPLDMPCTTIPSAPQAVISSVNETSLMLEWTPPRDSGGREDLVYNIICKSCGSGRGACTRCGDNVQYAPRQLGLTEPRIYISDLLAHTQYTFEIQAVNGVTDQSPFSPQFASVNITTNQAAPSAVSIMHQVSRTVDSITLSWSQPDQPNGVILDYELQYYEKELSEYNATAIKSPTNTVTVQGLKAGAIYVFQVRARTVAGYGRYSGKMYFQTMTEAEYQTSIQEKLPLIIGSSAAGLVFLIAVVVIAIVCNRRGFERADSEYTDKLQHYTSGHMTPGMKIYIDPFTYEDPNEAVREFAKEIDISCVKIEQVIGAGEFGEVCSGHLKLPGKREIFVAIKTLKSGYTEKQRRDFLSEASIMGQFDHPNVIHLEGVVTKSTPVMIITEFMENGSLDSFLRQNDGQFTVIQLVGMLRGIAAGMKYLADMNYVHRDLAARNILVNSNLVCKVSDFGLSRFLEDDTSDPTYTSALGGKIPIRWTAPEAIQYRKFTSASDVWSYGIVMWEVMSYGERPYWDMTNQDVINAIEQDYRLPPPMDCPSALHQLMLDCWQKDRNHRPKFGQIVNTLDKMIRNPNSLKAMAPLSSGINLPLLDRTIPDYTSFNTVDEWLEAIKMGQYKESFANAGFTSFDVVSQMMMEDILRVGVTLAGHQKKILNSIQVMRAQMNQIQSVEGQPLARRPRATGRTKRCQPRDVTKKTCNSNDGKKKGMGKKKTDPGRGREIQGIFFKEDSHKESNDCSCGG
Sequence of Fyn (P06241 whole entry, looked up): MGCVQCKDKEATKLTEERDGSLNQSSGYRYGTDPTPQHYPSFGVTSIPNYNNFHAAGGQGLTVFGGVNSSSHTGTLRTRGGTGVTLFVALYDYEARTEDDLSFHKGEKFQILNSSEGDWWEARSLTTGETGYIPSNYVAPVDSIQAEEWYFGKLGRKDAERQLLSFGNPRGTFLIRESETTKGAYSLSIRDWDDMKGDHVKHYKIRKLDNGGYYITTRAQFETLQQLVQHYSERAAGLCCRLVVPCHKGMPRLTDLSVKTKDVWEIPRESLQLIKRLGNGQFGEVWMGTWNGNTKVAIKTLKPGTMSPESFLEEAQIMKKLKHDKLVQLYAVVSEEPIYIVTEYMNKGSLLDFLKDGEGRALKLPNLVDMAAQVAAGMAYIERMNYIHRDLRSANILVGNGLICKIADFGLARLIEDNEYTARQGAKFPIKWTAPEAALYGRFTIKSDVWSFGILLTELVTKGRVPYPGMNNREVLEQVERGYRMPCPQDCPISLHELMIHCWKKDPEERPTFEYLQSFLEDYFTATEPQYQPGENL
Sequence of MERTK (Q12866 whole entry, looked up): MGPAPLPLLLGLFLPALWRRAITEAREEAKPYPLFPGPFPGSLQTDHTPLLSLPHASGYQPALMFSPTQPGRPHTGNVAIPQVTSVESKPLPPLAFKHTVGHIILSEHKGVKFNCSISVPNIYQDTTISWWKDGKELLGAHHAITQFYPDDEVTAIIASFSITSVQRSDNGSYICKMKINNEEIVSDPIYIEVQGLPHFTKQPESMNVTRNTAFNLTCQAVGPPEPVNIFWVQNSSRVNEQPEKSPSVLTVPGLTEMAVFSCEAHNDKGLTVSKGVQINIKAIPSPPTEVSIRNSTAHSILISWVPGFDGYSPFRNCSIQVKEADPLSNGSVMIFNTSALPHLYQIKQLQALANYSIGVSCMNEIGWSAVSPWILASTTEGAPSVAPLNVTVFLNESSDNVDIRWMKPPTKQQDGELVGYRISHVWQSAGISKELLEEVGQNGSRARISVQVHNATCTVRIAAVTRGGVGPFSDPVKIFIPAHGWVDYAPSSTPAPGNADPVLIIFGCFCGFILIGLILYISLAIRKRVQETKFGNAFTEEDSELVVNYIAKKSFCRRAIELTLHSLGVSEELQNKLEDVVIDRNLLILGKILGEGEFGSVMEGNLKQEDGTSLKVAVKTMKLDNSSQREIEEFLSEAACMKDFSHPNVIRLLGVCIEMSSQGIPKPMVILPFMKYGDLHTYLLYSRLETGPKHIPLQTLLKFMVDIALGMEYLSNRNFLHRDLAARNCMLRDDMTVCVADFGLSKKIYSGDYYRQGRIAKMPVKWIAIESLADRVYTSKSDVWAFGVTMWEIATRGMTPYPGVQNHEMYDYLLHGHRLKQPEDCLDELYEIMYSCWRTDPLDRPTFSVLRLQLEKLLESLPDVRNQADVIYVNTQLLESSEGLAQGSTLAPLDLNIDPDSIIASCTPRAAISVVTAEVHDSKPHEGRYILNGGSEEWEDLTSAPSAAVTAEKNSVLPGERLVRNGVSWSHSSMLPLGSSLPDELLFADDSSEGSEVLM
Sequence of EPHB1 (P54762 whole entry, looked up): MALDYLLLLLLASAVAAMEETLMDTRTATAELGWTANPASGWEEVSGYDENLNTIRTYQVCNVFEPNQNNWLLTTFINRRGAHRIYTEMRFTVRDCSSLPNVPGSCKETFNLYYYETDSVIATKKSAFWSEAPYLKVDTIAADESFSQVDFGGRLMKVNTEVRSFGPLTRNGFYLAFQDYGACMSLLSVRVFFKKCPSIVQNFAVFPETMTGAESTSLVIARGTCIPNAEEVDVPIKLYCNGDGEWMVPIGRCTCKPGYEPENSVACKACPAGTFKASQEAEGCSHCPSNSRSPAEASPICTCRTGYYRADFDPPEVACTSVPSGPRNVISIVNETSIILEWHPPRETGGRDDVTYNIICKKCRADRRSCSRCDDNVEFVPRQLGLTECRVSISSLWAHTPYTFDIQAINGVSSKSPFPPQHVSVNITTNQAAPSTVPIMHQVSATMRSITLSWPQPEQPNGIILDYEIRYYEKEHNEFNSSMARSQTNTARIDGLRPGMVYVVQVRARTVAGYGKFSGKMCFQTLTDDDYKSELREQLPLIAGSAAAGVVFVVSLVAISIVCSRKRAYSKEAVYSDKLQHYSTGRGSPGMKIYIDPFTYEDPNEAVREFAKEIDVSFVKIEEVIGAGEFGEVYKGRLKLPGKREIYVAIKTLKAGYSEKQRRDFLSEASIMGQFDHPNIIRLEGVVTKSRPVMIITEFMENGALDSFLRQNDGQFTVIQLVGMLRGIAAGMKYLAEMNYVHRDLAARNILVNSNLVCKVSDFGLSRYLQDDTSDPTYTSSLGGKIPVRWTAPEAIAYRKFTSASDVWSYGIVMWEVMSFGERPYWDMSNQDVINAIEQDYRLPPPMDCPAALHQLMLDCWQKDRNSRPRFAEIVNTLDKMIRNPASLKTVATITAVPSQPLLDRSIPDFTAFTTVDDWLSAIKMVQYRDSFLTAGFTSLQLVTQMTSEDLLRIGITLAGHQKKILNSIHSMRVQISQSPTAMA
Sequence of Jak2 (O60674 whole entry, looked up): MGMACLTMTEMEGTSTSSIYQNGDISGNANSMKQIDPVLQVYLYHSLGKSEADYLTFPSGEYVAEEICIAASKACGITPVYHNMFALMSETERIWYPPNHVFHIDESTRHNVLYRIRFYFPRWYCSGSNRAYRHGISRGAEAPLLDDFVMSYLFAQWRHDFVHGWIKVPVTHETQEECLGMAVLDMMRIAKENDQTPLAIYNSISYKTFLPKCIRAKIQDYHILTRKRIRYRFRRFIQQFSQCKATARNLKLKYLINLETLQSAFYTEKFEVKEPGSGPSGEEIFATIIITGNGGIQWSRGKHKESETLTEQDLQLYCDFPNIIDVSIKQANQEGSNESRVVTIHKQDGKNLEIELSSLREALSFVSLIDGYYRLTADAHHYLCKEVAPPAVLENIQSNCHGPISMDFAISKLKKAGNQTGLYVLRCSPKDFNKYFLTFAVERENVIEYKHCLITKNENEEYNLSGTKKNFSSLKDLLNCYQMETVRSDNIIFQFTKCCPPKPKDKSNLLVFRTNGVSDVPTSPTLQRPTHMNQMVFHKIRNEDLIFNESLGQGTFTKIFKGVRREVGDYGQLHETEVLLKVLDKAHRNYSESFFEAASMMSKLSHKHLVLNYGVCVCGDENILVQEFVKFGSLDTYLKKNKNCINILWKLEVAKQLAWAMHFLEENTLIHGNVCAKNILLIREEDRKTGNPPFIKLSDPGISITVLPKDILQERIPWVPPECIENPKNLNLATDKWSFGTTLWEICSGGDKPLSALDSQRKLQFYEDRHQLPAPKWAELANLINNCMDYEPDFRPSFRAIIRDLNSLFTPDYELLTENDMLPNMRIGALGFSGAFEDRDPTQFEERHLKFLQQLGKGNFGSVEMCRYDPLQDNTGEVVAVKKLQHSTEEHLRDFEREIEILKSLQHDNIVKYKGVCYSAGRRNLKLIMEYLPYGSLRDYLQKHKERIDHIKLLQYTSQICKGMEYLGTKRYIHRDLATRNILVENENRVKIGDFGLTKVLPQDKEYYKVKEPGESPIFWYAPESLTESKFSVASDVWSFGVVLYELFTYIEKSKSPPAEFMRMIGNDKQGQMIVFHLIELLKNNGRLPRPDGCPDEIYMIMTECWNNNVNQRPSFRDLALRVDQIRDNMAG

| Sequence | SH2 binding enrichment (SHP2-C SH2) | SH2 binding enrichment (c-Src SH2) | SH2 binding enrichment (Grb2 SH2) | phosphorylation enrichment (MERTK) | phosphorylation enrichment (c-Abl (mouse)) | phosphorylation enrichment (Jak2) | phosphorylation enrichment (c-Src) | phosphorylation enrichment (EPHB1) | phosphorylation enrichment (FGFR1) | phosphorylation enrichment (Fer (mouse)) | phosphorylation enrichment (Fyn) | phosphorylation enrichment (AncSZ) | phosphorylation enrichment (FGFR3) | phosphorylation enrichment (Fes) | phosphorylation enrichment (EPHB2) | phosphorylation enrichment (Hck) |
| --- | --- | --- | --- | --- | --- | --- | --- | --- | --- | --- | --- | --- | --- | --- | --- | --- |
| RVDRDYVLKSA [HTATIP2_Y111] | 0.653 | 0.418 | 0.976 | 0.857 | 0.709 | 0.75 | 0.961 | 0.487 | 0.627 | 0.665 | 0.47 | 1.08 | 0.585 | 0.872 | 0.442 | 0.772 |
| RVLHNYLVWRV [ECEL1_Y400] | 1.79 | 1.73 | 1.74 | 0.79 | 0.762 | 1.07 | 0.526 | 1.6 | 1.4 | 1.12 | 0.867 | 2.51 | 1.7 | 1.93 | 1.12 | 1.01 |
| RVQQIYSDSDL [MIB1_Y376] | 0.962 | 0.541 | 0.842 | 4.58 | 1.31 | 0.902 | 5.32 | 1.45 | 0.574 | 3.92 | 4.75 | 1.32 | 0.852 | 1.32 | 0.837 | 3.68 |
| SDLTDYLMKIL [ACTA1_Y190_R185S] | 0.903 | 0.608 | 1.16 | 0.445 | 0.789 | 1.1 | 0.507 | 0.578 | 0.532 | 0.582 | 0.535 | 1.14 | 0.732 | 1.22 | 0.648 | 0.571 |
| SEELHYFVQNH [UQCRC2_Y207] | 0.819 | 0.587 | 0.806 | 0.841 | 1.07 | 1.08 | 0.685 | 0.647 | 1.12 | 0.562 | 0.523 | 1.45 | 1.39 | 1.16 | 0.661 | 0.524 |
| SELVRYDARVH [MET_Y971] | 0.737 | 0.486 | 0.862 | 0.443 | 0.523 | 0.687 | 0.433 | 0.388 | 0.479 | 0.442 | 0.456 | 0.595 | 0.627 | 0.739 | 0.494 | 0.581 |
| SEVVPYEPPEV [TP53_Y220_V216E] | 1.02 | 0.563 | 0.902 | 0.473 | 0.784 | 1.16 | 0.529 | 0.604 | 0.601 | 0.585 | 0.583 | 1.28 | 0.81 | 1.33 | 0.621 | 0.582 |
| SFPREYGSQEG [RBM10_Y48_YF] | 0.681 | 0.467 | 0.9 | 0.48 | 0.461 | 0.532 | 0.475 | 0.392 | 0.491 | 0.387 | 0.506 | 0.715 | 0.567 | 0.755 | 0.447 | 0.565 |
| SFSGEYGSGGG [ZG16_Y30_G32S_YF] | 0.728 | 0.409 | 0.885 | 0.327 | 0.564 | 0.563 | 0.512 | 0.34 | 0.423 | 0.46 | 0.43 | 0.556 | 0.432 | 0.658 | 0.454 | 0.496 |
| SGVVPYEPPEV [TP53_Y220_V216G] | 0.77 | 0.49 | 0.814 | 0.443 | 0.659 | 0.986 | 0.481 | 0.581 | 0.588 | 0.572 | 0.667 | 1.12 | 0.781 | 1.21 | 0.738 | 0.524 |
| SHNELYYEAAE [VANGL1_Y344_E347A] | 0.922 | 1.4 | 0.726 | 1.9 | 0.801 | 1.18 | 1.17 | 1 | 2.63 | 3.52 | 0.986 | 1.6 | 2.54 | 1.12 | 0.737 | 1.1 |
| SIKDKYLTALF [KCNH2_Y611_V612L_YF] | 0.778 | 0.674 | 1.07 | 0.408 | 0.468 | 0.665 | 0.394 | 0.435 | 0.481 | 0.484 | 0.448 | 0.724 | 0.572 | 0.784 | 0.449 | 0.414 |
| SLDHPFEKPRK [INAVA_Y333_Y333F] | 0.813 | 0.508 | 1.01 | 0.365 | 0.61 | 0.663 | 0.436 | 0.317 | 0.388 | 0.3 | 0.721 | 0.589 | 0.524 | 0.749 | 0.433 | 0.376 |
| SLFQFYFQQKG [CHKB_Y381_R377L] | 1.37 | 1.02 | 1.58 | 0.403 | 0.932 | 1.43 | 0.425 | 0.657 | 0.521 | 0.612 | 0.397 | 1.35 | 0.833 | 1.42 | 0.568 | 0.488 |
| SLIDMYSKVLD [OPA1_Y268_E270K] | 0.737 | 1.6 | 0.777 | 0.481 | 0.482 | 0.814 | 0.478 | 0.462 | 0.479 | 0.501 | 0.421 | 0.953 | 0.637 | 1.02 | 0.57 | 0.497 |
| SLQFEYVHFGG [CDC14A_Y591_S589F_YF] | 0.925 | 0.643 | 1.08 | 0.426 | 0.781 | 1.12 | 0.604 | 0.612 | 1.47 | 0.367 | 0.548 | 1.25 | 1.33 | 1.29 | 0.682 | 0.557 |

Further lines, with some results ahead:

| SH2 binding enrichment (SHP2-C SH2) | SH2 binding enrichment (c-Src SH2) | SH2 binding enrichment (Grb2 SH2) | Sequence | phosphorylation enrichment (MERTK) | phosphorylation enrichment (c-Abl (mouse)) | phosphorylation enrichment (Jak2) | phosphorylation enrichment (c-Src) | phosphorylation enrichment (EPHB1) | phosphorylation enrichment (FGFR1) | phosphorylation enrichment (Fer (mouse)) | phosphorylation enrichment (Fyn) | phosphorylation enrichment (AncSZ) | phosphorylation enrichment (FGFR3) | phosphorylation enrichment (Fes) | phosphorylation enrichment (EPHB2) | phosphorylation enrichment (Hck) |
| --- | --- | --- | --- | --- | --- | --- | --- | --- | --- | --- | --- | --- | --- | --- | --- | --- |
| 0.514 | 0.452 | 0.84 | SAVTGYRVDVI [FN1_Y937] | 0.358 | 0.432 | 0.616 | 0.353 | 0.368 | 0.398 | 0.335 | 0.425 | 0.546 | 0.534 | 0.566 | 0.377 | 0.374 |
| 0.483 | 0.4 | 0.669 | SFCFRYRCAAR [SUMF1_Y344_YF] | 0.614 | 0.763 | 0.643 | 0.618 | 0.466 | 0.47 | 0.472 | 0.49 | 0.772 | 0.54 | 0.634 | 0.571 | 0.469 |
| 0.959 | 0.894 | 1.1 | SFMVRYNQPRV [GRIN2D_Y736_YF] | 0.389 | 0.582 | 0.685 | 0.398 | 0.557 | 0.473 | 0.423 | 0.446 | 0.832 | 0.57 | 0.954 | 0.698 | 0.505 |
| 1.2 | 0.877 | 1.18 | SFPSYYTSHVQ [NEFL_Y443] | 5.38 | 1.85 | 4.39 | 0.737 | 1.88 | 1.86 | 0.759 | 0.59 | 0.88 | 1.76 | 0.914 | 1.1 | 1.1 |
| 0.712 | 0.532 | 1.02 | SGEKPYKCSVC [ZNF543_Y283_E287V] | 0.416 | 0.493 | 0.434 | 0.365 | 0.261 | 0.342 | 0.398 | 0.373 | 0.495 | 0.355 | 0.524 | 0.298 | 0.255 |
| 0.536 | 0.538 | 0.756 | SGGSSYGSGGC [KRT1_Y532_G537C] | 0.431 | 0.697 | 0.677 | 0.502 | 0.558 | 0.589 | 0.53 | 0.465 | 0.681 | 0.667 | 0.932 | 0.596 | 0.493 |
| 0.747 | 0.569 | 0.734 | SGSIHYSCVPR [GLB1_Y57_R59C] | 0.517 | 0.898 | 1.06 | 0.526 | 0.591 | 0.536 | 0.578 | 0.474 | 1.05 | 0.771 | 1.15 | 0.585 | 0.54 |
| 0.592 | 0.557 | 0.887 | SHGKRYRVPSD [HHIPL2_Y395] | 0.374 | 0.337 | 0.314 | 0.352 | 0.254 | 0.301 | 0.285 | 0.395 | 0.379 | 0.366 | 0.413 | 0.274 | 0.274 |
| 0.748 | 0.97 | 1.19 | SHTPSYCDEWL [RITA1_Y109_S113W] | 0.553 | 0.985 | 0.97 | 0.494 | 0.645 | 0.529 | 0.57 | 0.473 | 1.17 | 0.779 | 1.12 | 0.558 | 0.505 |
| 0.73 | 0.444 | 0.83 | SIVEDYRPPFF [ACVRL1_Y421_G416S_YF] | 0.473 | 0.821 | 0.85 | 0.45 | 0.578 | 0.435 | 0.485 | 0.378 | 1.01 | 0.646 | 1.01 | 0.46 | 0.38 |
| 1.17 | 1.32 | 1.38 | SKKVRYVVSKA [BARD1_Y156] | 0.312 | 0.538 | 0.482 | 0.341 | 0.309 | 0.292 | 0.36 | 0.366 | 0.474 | 0.402 | 0.569 | 0.334 | 0.372 |
| 0.602 | 0.533 | 0.732 | SLTGAYASGIP [POM121C_Y378_T379A] | 0.436 | 0.647 | 0.904 | 0.482 | 0.518 | 0.519 | 0.453 | 0.478 | 0.627 | 0.602 | 0.906 | 0.43 | 0.575 |
| 0.452 | 0.438 | 0.806 | SLTRLYVGENA [NLRP3_Y861] | 0.34 | 0.496 | 0.494 | 0.357 | 0.357 | 0.485 | 0.444 | 0.424 | 0.725 | 0.517 | 0.703 | 0.521 | 0.554 |
